Results as given in patent publication US20240082437A1 (Hoffmann-La Roche, published 2024).

T1: Carcinoembryonic antigen (CEA) (human, UniProt P06731 35-685)
T1 construct: whole, on cells; also called Carcinoembryonic antigen-related cell adhesion molecule 5; CEACAM5
T1 sequence (looked up): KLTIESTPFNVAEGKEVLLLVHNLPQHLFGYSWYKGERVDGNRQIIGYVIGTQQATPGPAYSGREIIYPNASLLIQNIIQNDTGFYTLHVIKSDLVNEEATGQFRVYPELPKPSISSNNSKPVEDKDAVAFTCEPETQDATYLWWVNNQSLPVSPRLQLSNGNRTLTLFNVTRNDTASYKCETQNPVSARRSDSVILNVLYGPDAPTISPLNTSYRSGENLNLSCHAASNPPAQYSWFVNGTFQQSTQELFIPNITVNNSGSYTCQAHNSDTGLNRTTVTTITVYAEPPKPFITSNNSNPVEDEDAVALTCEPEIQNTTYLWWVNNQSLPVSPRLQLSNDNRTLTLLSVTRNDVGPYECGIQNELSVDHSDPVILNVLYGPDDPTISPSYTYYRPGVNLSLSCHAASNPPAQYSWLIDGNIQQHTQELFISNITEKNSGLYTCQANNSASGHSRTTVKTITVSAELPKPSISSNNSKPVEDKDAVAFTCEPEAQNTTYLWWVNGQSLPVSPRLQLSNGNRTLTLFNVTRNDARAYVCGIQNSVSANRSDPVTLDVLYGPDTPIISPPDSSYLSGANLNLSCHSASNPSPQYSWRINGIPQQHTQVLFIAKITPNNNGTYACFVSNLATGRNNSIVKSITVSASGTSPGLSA


Tests used:
[1] = target: T1, Carcinoembryonic antigen (CEA); assay: flow cytometry on MKN45 cells (CEA), hemibody mixed 1:1 with human ISO control, detected with anti-human IgG(H+L) (FITC in the legend box, A488 in the title)
Procedure: To assess the functionality of the split antibodies or hemibodies, MKN-45 cells were detached from the culture vessel using accutase at 37° C. for 10 minutes. Subsequently, the cells were washed twice in PBS, and seeded into 96 well v-bottom plates to a final density of 4×10⁶ cells/well.
Subsequently, the cells were incubated for 1 h on ice and washed twice in PBS. The cell pellet was resuspended and 40 μl/well of detection reagent was added, either <human IgG(H+L)>FITC, (10 μg/ml) or Pb_Dotam_FITC 1:100=>(10 μg/ml) in PBS/5% FCS. After 60 min incubation on ice, the cells were washed twice in PBS and resuspended in 200 μl PBS/5% FCS for measurement of FITC fluorescence using a FACS canto.

[2] = target: T1, Carcinoembryonic antigen (CEA); assay: FACS on MKN-45 cells, detection with anti-huIgG(H+L)-Alexa488
Procedure: MKN-45 cells were detached from the culture bottle using Trypsin and were counted using a Casy cell counter. After pelleting at 4° C., 300 g the cells were resuspended in FACS Buffer (2.5% FCS in PBS), adjusted to 2.0E+06 cells/mL dispensed to 96-well PP V-bottom-Platte (25 μL/well=5.0E+04Zellen/well).
Both antibodies were added to the cells either separated followed by buffer or combined and incubated at 4° C. for 1 h. The cells were then washed twice in FACS buffer. After washing, the cells were resuspended in 50 μL FACS-buffer containing secondary antibody (<huIgG(H+L)>-Alexa488, c=10 μg/mL) and incubated 1 h at 4° C. The cells were then washed twice in FACS buffer and resuspended in 70 μl/well FACS buffer for measurement using a FACS Canto (BD, Pharmingen).

EC50 (read off the curve) [1] | EC50 [2] | Binder
~1 µg/mL | – | P1AD8749 (antibody, human IgG1, kappa, L234A L235A, Split antibody (hemibody) with CH1A1A anti-CEA Fabs; also called CEA-split-DOTAM-VH; PRIT Split Antibody with DOTAM-VH) heavy 1: QVQLVQSGAEVKKPGASVKVSCKASGYTFTEFGMNWVRQAPGQGLEWMGWINTKTGEATYVEEFKGRVTFTTDTSTSTAYMELRSLRSDDTAVYYCARWDFAYYVEAMDYWGQGTTVTVSSASTKGPSVFPLAPSSKSTSGGTAALGCLVKDYFPEPVTVSWNSGALTSGVHTFPAVLQSSGLYSLSSVVTVPSSSLGTQTYICNVNHKPSNTKVDKKVEPKSCDKTHTCPPCPAPEAAGGPSVFLFPPKPKDTLMISRTPEVTCVVVDVSHEDPEVKFNWYVDGVEVHNAKTKPREEQYNSTYRVVSVLTVLHQDWLNGKEYKCKVSNKALGAPIEKTISKAKGQPREPQVCTLPPSRDELTKNQVSLSCAVKGFYPSDIAVEWESNGQPENNYKTTPPVLDSDGSFFLVSKLTVDKSRWQQGNVFSCSVMHEALHNHYTQKSLSLSPG heavy 2: not shown light: DIQMTQSPSSLSASVGDRVTITCKASAAVGTYVAWYQQKPGKAPKLLIYSASYRKRGVPSRFSGSGSGTDFTLTISSLQPEDFATYYCHQYYTYPLFTFGQGTKLEIKRTVAAPSVFIFPPSDEQLKSGTASVVCLLNNFYPREAKVQWKVDNALQSGNSQESVTEQDSKDSTYSLSSTLTLSKADYEKHKVYACEVTHQGLSSPVTKSFNRGEC
– | 2.7 µg/mL | P1AF0712 (antibody, Split antibody with CH1A1A anti-CEA Fabs; Both heavy chains carry VH-CH1; also called CEA specific SPLIT antibody (DOTA-VL); P6_A) heavy 1: not shown heavy 2: QVQLVQSGAEVKKPGASVKVSCKASGYTFTEFGMNWVRQAPGQGLEWMGWINTKTGEATYVEEFKGRVTFTTDTSTSTAYMELRSLRSDDTAVYYCARWDFAYYVEAMDYWGQGTTVTVSSASTKGPSVFPLAPSSKSTSGGTAALGCLVKDYFPEPVTVSWNSGALTSGVHTFPAVLQSSGLYSLSSVVTVPSSSLGTQTYICNVNHKPSNTKVDKKVEPKSCDKTHTCPPCPAPEAAGGPSVFLFPPKPKDTLMISRTPEVTCVVVDVSHEDPEVKFNWYVDGVEVHNAKTKPREEQYNSTYRVVSVLTVLHQDWLNGKEYKCKVSNKALGAPIEKTISKAKGQPREPQVCTLPPSRDELTKNQVSLSCAVKGFYPSDIAVEWESNGQPENNYKTTPPVLDSDGSFFLVSKLTVDKSRWQQGNVFSCSVMHEALHNHYTQKSLSLSPGGGGGSGGGGSGGGGSGGGGSQAVVIQESALTTPPGETVTLTCGSSTGAVTASNYANWVQEKPDHLFTGLIGGHNNRPPGVPARFSGSLIGDKAALTIAGTQTEDEAIYFCALWYSDHWVIGGGTKLTVL light: DIQMTQSPSSLSASVGDRVTITCKASAAVGTYVAWYQQKPGKAPKLLIYSASYRKRGVPSRFSGSGSGTDFTLTISSLQPEDFATYYCHQYYTYPLFTFGQGTKLEIKRTVAAPSVFIFPPSDEQLKSGTASVVCLLNNFYPREAKVQWKVDNALQSGNSQESVTEQDSKDSTYSLSSTLTLSKADYEKHKVYACEVTHQGLSSPVTKSFNRGEC
– | 2.3 µg/mL | P1AF0713 (antibody, Split antibody with CH1A1A anti-CEA Fabs; Both heavy chains carry VH-CH1; also called CEA specific SPLIT antibody (DOTA-VH-AST); P6_B) heavy 1: QVQLVQSGAEVKKPGASVKVSCKASGYTFTEFGMNWVRQAPGQGLEWMGWINTKTGEATYVEEFKGRVTFTTDTSTSTAYMELRSLRSDDTAVYYCARWDFAYYVEAMDYWGQGTTVTVSSASTKGPSVFPLAPSSKSTSGGTAALGCLVKDYFPEPVTVSWNSGALTSGVHTFPAVLQSSGLYSLSSVVTVPSSSLGTQTYICNVNHKPSNTKVDKKVEPKSCDKTHTCPPCPAPEAAGGPSVFLFPPKPKDTLMISRTPEVTCVVVDVSHEDPEVKFNWYVDGVEVHNAKTKPREEQYNSTYRVVSVLTVLHQDWLNGKEYKCKVSNKALGAPIEKTISKAKGQPREPQVCTLPPSRDELTKNQVSLSCAVKGFYPSDIAVEWESNGQPENNYKTTPPVLDSDGSFFLVSKLTVDKSRWQQGNVFSCSVMHEALHNHYTQKSLSLSPG heavy 2: not shown light: DIQMTQSPSSLSASVGDRVTITCKASAAVGTYVAWYQQKPGKAPKLLIYSASYRKRGVPSRFSGSGSGTDFTLTISSLQPEDFATYYCHQYYTYPLFTFGQGTKLEIKRTVAAPSVFIFPPSDEQLKSGTASVVCLLNNFYPREAKVQWKVDNALQSGNSQESVTEQDSKDSTYSLSSTLTLSKADYEKHKVYACEVTHQGLSSPVTKSFNRGEC
